Measured values from US20120269827A1, “Compositions and Methods for Treatment of Ovarian, Peritoneal, and Fallopian Tube Cancer” (ImmunoGen, Inc., priority 2011, published 2012).
Entries after “also recorded” stand apart in the source; their conditions may differ.

Tests used:
[1] = system: COLO 720E human ovarian carcinoma xenografts; experiment: Anti-tumor effect of lorvotuzumab mertansine and gemcitabine in established subcutaneous COLO 720E xenografts (Example 1); assay type: in vivo, athymic nude mice; details: for % of tumor growth for treated vs. control (T/C) / anti-tumor activity rating (NCI standards): lorvotuzumab mertansine 11 mg/kg iv once weekly x3, gemcitabine 80 mg/kg ip every three days x4, combination same doses; for tumor regressions (any): six mice per group, single-agent groups
From the text: (§1) Mice were inoculated with human ovarian cancer cell lines and allowed to become established (average tumor size of about 100 mm^3) prior to treatment. Conjugate dosing is described based on antibody concentration. Efficacy is reported as both the % of tumor growth for treated vs. control (% T/C) and log cell kill (LCK) determined from the tumor doubling time and the tumor growth delay due to the treatment.
The anti-tumor effect of a combination of lorvotuzumab mertansine and gemcitabine was evaluated in an established subcutaneous xenograft model of ovarian cancer. Athymic nude mice were inoculated with COLO 720E human ovarian cancer cells (1×10^7 cells/animal) injected subcutaneously into the right flank. When the tumors reached about 110 mm^3 in size (10 days after tumor cell inoculation), the mice were randomly divided into four groups (six animals per group). A control group was treated with a single intravenous injection of PBS. A second group of mice were treated with the single agent lorvotuzumab mertansine at a dose of 11 mg/kg once weekly for three weeks (days 11, 18 and 25 post tumor cell inoculation) administered intravenously. The third group received single-agent gemcitabine administered intraperitoneally at a dose of 80 mg/kg every three days for a total of four injections (days 11, 14, 17 and 20 post tumor cell inoculation). A fourth group was treated with the combination of lorvotuzumab mertansine and gemcitabine with the same doses and routes of administration as for individual treatments. Tumor growth was monitored by measuring tumor size twice per week. Tumor size was calculated with the formula: length×width×height×½.

[2] = system: COLO 720E human ovarian carcinoma xenografts; experiment: Anti-tumor effect of lorvotuzumab mertansine and topotecan in established subcutaneous COLO 720E xenografts (Example 2); assay type: in vivo, athymic nude mice; design: key to anti-tumor activity rating (NCI standards): Percent T/C values less than or equal to 42% and/or LCK values of 0.5 or greater are considered active; percent T/C values less than 10% are considered highly active; details: for mice tumor free until the end of the study: day 120, six mice per group; for % of tumor growth for treated vs. control (T/C) / anti-tumor activity rating (NCI standards): lorvotuzumab mertansine 11 mg/kg iv once weekly x3, topotecan 0.7 mg/kg ip 5/2/5 schedule, combination same doses
From the text: Mice were inoculated with human ovarian cancer cell lines and allowed to become established (average tumor size of about 100 mm^3) prior to treatment. Conjugate dosing is described based on antibody concentration. Efficacy is reported as both the % of tumor growth for treated vs. control (% T/C) and log cell kill (LCK) determined from the tumor doubling time and the tumor growth delay due to the treatment. […] Athymic nude mice were inoculated with COLO 720E human ovarian cancer cells (1×10^7 cells/animal) injected subcutaneously into the right flank. When the tumors reached about 115 mm^3 in size (12 days after tumor cell inoculation), the mice were randomly divided into four groups (six animals per group). A control group was treated with a single intravenous injection of PBS. A second group of mice were treated with the single agent lorvotuzumab mertansine at a dose of 11 mg/kg once weekly for three weeks (days 12, 19 and 26 post tumor cell inoculation) administered intravenously. The third group received single-agent topotecan administered intraperitoneally at a dose of 0.7 mg/kg on a 5/2/5 schedule (daily×5, 2 days off, daily×5; days 12-16 and 19-23 post tumor cell inoculation). A fourth group was treated with the combination of lorvotuzumab mertansine and topotecan with the same doses and routes of administration as for individual treatments. Tumor growth was monitored by measuring tumor size twice per week. Tumor size was calculated with the formula: length×width×height×½.

[3] = system: human xenograft preclinical models for ovarian cancer; details: no data given; cited from earlier work
[4] = system: COLO 720E human ovarian carcinoma xenografts; experiment: Anti-tumor effect of lorvotuzumab mertansine and DOXIL in established subcutaneous COLO 720E xenografts (Example 3); assay type: in vivo, athymic nude mice; design: key to anti-tumor activity rating (NCI standards): Percent T/C values less than or equal to 42% and/or LCK values of 0.5 or greater are considered active; percent T/C values less than 10% are considered highly active
From the text: as §1
The anti-tumor effect of a combination of lorvotuzumab mertansine and DOXIL® (i.e., PEGylated Liposomal Doxorubicin (PLD)) was evaluated in an established subcutaneous xenograft model of ovarian cancer. Athymic nude mice were inoculated with COLO 720E human ovarian cancer cells (1×10^7 cells/animal) injected subcutaneously into the right flank. When the tumors reached about 100 mm^3 in size (10 days after tumor cell inoculation), the mice were randomly divided into four groups (six animals per group). A control group was treated with a single intravenous injection of PBS. A second group of mice were treated with the single agent lorvotuzumab mertansine at a dose of 11 mg/kg once weekly for three weeks (days 10, 17 and […] post tumor cell inoculation) administered intravenously. The third group received single-agent DOXIL® at a dose of 11 mg/kg (single injection on day 10 post tumor cell inoculation) administered intravenously. A fourth group was treated with the combination of lorvotuzumab mertansine and DOXIL® with the same doses and routes of administration as for individual treatments. Tumor growth was monitored by measuring tumor size twice per week. Tumor size was calculated with the formula: length×width×height× 1/2.

[5] = lorvotuzumab mertansine 11 mg/kg iv once weekly x3, DOXIL 11 mg/kg iv single injection, combination same doses

| Molecule | % of tumor growth for treated vs. control (T/C) [1] [%] | anti-tumor activity rating (NCI standards) [1] | tumor regressions (any) [1] | mice tumor free until the end of the study [2] | % of tumor growth for treated vs. control (T/C) [2] [%] | anti-tumor activity rating (NCI standards) [2] | complete regression (CR) ([2]; six mice per group) | antitumor activity as a single agent [3] | partial regression (PR) ([2]; six mice per group) | mice remaining tumor free to the end of the study ([4]; day 118, six mice per group) | % of tumor growth for treated vs. control (T/C) [4, 5] [%] | anti-tumor activity rating (NCI standards) [4, 5] | complete regressions (CR) ([4]; six mice per group) |
| --- | --- | --- | --- | --- | --- | --- | --- | --- | --- | --- | --- | --- | --- |
| Nc1ccn([C@@H]2O[C@H](CO)[C@@H](O)C2(F)F)c(=O)n1 [gemcitabine, reference compound] | 77 | inactive | no regressions | – | – | – | – | – | – | – | – | – | – |
| CC[C@@]1(O)C(=O)OCc2c1cc1n(c2=O)Cc2cc3c(CN(C)C)c(O)ccc3nc2-1 [topotecan, reference compound] | – | – | – | no tumor-free mice | 26 | active | one of six | – | – | – | – | – | – |
| lorvotuzumab mertansine: antibody-drug conjugate comprised of the CD56-binding monoclonal antibody huN901, the SPP linker, and the maytansinoid cytotoxic agent DM1 (conjugate, chains of the INN, looked up, SPP linker, DM1 maytansinoid) VH: QVQLVESGGGVVQPGRSLRLSCAASGFTFSSFGMHWVRQAPGKGLEWVAYISSGSFTIYYADSVKGRFTISRDNSKNTLYLQMNSLRAEDTAVYYCARMRKGYAMDYWGQGTLVTVSS VL: DVVMTQSPLSLPVTLGQPASISCRSSQIIIHSDGNTYLEWFQQRPGQSPRRLIYKVSNRFSGVPDRFSGSGSGTDFTLKISRVEAEDVGVYYCFQGSHVPHTFGQGTKVEIK | 38 | modest antitumor activity; also recorded: active | no tumor regressions | no tumor-free mice | 59 | inactive | – | marked antitumor activity | one of six | one | 14 | active | one and one of six |
